The supplement of paper PMC9112550, “Optimization of the antimicrobial peptide Bac7 by deep mutational scanning” (BMC Biology, 2022)

System: Escherichia coli TOP10
Assay: shrunken log2 fold change of peptide-encoding DNA abundance (4.5 h post-induction vs induction); higher = less antimicrobial activity (less host growth inhibition)
Conditions: time post-induction: 4.5 h; library: site-saturation at positions 5, 18, 19, 20
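Also: peptides expressed intracellularly from a pBAD plasmid library in pooled LB shake-flask culture, induced with 0.3% L-arabinose, DNA abundance read by NGS, three biological replicates, DESeq2 with apeglm shrinkage.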

Row | Sequence | shrunken log2 fold change
1 | RRIRYRPPRLPRPRPRPRIRPRP | 0.0291
2 | RRIRYRPPRLPRPRPRPVEQPRP | -0.191
3 | RRIRHRPPRLPRPRPRPDCNPRP | -0.18
4 | RRIRCRPPRLPRPRPRPFPEPRP | -0.312
5 | RRIRSRPPRLPRPRPRPMKTPRP | 0.0178
6 | RRIRFRPPRLPRPRPRPEAIPRP | 0.104
7 | RRIRRRPPRLPRPRPRPGIYPRP | 0.0548
8 | RRIRSRPPRLPRPRPRPWETPRP | -0.0029
9 | RRIRARPPRLPRPRPRPFRMPRP | -0.184
10 | RRIRCRPPRLPRPRPRPDPMPRP | 0.00263
11 | RRIRIRPPRLPRPRPRPSAIPRP | -0.0599
12 | RRIRLRPPRLPRPRPRPRDRPRP | 3.43
13 | RRIRNRPPRLPRPRPRPCISPRP | -0.802
14 | RRIRCRPPRLPRPRPRPITEPRP | -0.206
15 | RRIRTRPPRLPRPRPRPPNNPRP | -0.377
16 | RRIRRRPPRLPRPRPRPWRYPRP | 0.322
17 | RRIRARPPRLPRPRPRPDAFPRP | 0.879
18 | RRIRVRPPRLPRPRPRPLVNPRP | -0.244
19 | RRIRYRPPRLPRPRPRPSRKPRP | 0.0647
20 | RRIRRRPPRLPRPRPRPMRLPRP | 0.667

Row | Sequence | shrunken log2 fold change
21 | RRIRIRPPRLPRPRPRPNQEPRP | -0.177
22 | RRIRMRPPRLPRPRPRPWASPRP | 0.0142
23 | RRIRWRPPRLPRPRPRPNNCPRP | 0.00476
24 | RRIRARPPRLPRPRPRPKFRPRP | -0.043
25 | RRIRPRPPRLPRPRPRPLINPRP | -0.298
26 | RRIRWRPPRLPRPRPRPGRVPRP | 0.37
27 | RRIRLRPPRLPRPRPRPWYKPRP | -0.0396
28 | RRIRGRPPRLPRPRPRPPTMPRP | 0.429
29 | RRIRHRPPRLPRPRPRPCQYPRP | 0.0163
30 | RRIRIRPPRLPRPRPRPANHPRP | -0.528
31 | RRIRRRPPRLPRPRPRPQIGPRP | 0.164
32 | RRIRNRPPRLPRPRPRPSQLPRP | 0.00155
33 | RRIRVRPPRLPRPRPRPHLLPRP | -0.272
34 | RRIRYRPPRLPRPRPRPSAKPRP | -0.117
35 | RRIRHRPPRLPRPRPRPQLSPRP | -0.000101
36 | RRIRPRPPRLPRPRPRPGASPRP | 0.344
37 | RRIRKRPPRLPRPRPRPANLPRP | 0.299
38 | RRIRDRPPRLPRPRPRPMQTPRP | 0.0424
39 | RRIRQRPPRLPRPRPRPAGRPRP | 0.978
40 | RRIRGRPPRLPRPRPRPMSGPRP | 0.0585

Row | Sequence | shrunken log2 fold change
41 | RRIRARPPRLPRPRPRPEMFPRP | 0.522
42 | RRIRGRPPRLPRPRPRPWKPPRP | 0.0444
43 | RRIRHRPPRLPRPRPRPFHDPRP | -0.152
44 | RRIRMRPPRLPRPRPRPAMRPRP | 1.14
45 | RRIRYRPPRLPRPRPRPVTRPRP | -0.129
46 | RRIRERPPRLPRPRPRPCTKPRP | -0.63
47 | RRIRNRPPRLPRPRPRPKTPPRP | 0.228
48 | RRIRDRPPRLPRPRPRPEDSPRP | 0.882
49 | RRIRKRPPRLPRPRPRPTNEPRP | 0.387
50 | RRIRPRPPRLPRPRPRPLPWPRP | 0.592
51 | RRIRMRPPRLPRPRPRPLYAPRP | 0.063
52 | RRIRSRPPRLPRPRPRPYKFPRP | -0.15
53 | RRIRTRPPRLPRPRPRPWNIPRP | 0.0303
54 | RRIRSRPPRLPRPRPRPYLKPRP | -0.0359
55 | RRIRDRPPRLPRPRPRPHIWPRP | -0.0717
56 | RRIRQRPPRLPRPRPRPLGEPRP | 0.0549
57 | RRIRMRPPRLPRPRPRPACRPRP | 0.633
58 | RRIRYRPPRLPRPRPRPELYPRP | -0.106
59 | RRIRSRPPRLPRPRPRPSLTPRP | -0.138
60 | RRIRKRPPRLPRPRPRPQAQPRP | 0.0703
